Patent publication US20240058465A1 (SUTRO BIOPHARMA, published 2024)

These binders were tested against T1, human ROR1 (hROR1) (human, UniProt Q01973 30-937) (assay: flow cytometry, HCT116-hROR1 cells).
T1 construct: On HCT116-hROR1 transfectants, Mino cells or Ntera-2 cells, as the assay of each row says; also called receptor tyrosine kinase like orphan receptor 1
Description: A mix of ROR1 positive and negative cells was prepared as follows. Ror1 negative cells were washed 2× in PBS then incubated in PBS containing 1 nM CellTrace™ Oregon Green488® (Life Technologies) at 37° C. for 30 minutes. Cells were then washed 2× with RPMI w/10% fetal calf serum (or FCS), washed 2× with FACS buffer (PBS+0.5% BSA), suspended thoroughly in ice-cold FACS buffer at a final concentration of 4×10^6 cells/ml and kept on ice. ROR1 positive cells were washed 2× in PBS and suspended with ice-cold FACS buffer at 4×10^6 cells/ml. ROR1 positive and negative cells were then mixed to obtain a 1-1 cell suspension and seeded at 50 μl per well on 96 well polypropylene plates. 50 μl of 6-12 point dilutions of anti-ROR1 variants starting from concentrations of ˜100-200 nM antibody was dispensed using BioMekFX (Beckman Coulter) into each well. Cells were then incubated on ice for 1 hr, washed with FACS buffer and incubated for 1 hr on ice with 50 μl FACS buffer containing 2.5 μg/ml Alexa647-conjugated Goat Anti-Human IgG dispensed using BioMekFX (Beckman Coulter). Cells were then washed 2× with FACS buffer and fixed for 10 minutes in 200 μl PBS with 2% PFA prior to fluorescence detection. Samples were acquired using a Beckton Dickinson LSRII FACS. Mean Fluorescence Intensity of ROR1 antibody binding was analyzed using FlowJo® software (Tree Star, Inc.).

Binder	Bmax (MFI)	Kd [nM]
SRP2193-C01 (antibody, IgG1, V domains shown, His/FLAG-tagged IgG1, cell-free) VH: EVQLVESGGGLVQPGGSLRLSCAASGLNINDHYIHWVRQAPGKGLEWVGTIDPKSGSTHVADSVKGRFTISADTSKNTAYLQMNSLRAEDTAVYYCARSRWFRVLWSYVFDYWGQGTLVTVSS VL: not shown	15900	0.39
SRP2193-E09 (antibody, IgG1, V domains shown, His/FLAG-tagged IgG1, cell-free) VH: EVQLVESGGGLVQPGGSLRLPCAASGFNIGAYYIHWVRQAPGKGLEWVGAIDPGSGYTVPADSVKGRFTISADTSKNTAYLQMNSLRAEDTAVYYCARSRWYRVLWSYVFDYWGQGTLVTVSS VL: not shown	16300	0.46
SRP2193-D11 (antibody, IgG1, V domains shown, His/FLAG-tagged IgG1, cell-free; also called Antibody 76) VH: EVQLVESGGGSVQPGGSLRLSCAASGFNINAYYIHWVRQAPGKGLEWVGAIDPNTGSTVDADSVKGRFTISADTSKNTAYLQMNSLRAEDTAVYYCARSRWFRVLWSYVFDYWGQGTLVTVSS VL: not shown	15200	1.25
SRP2193-B05 (antibody, IgG1, V domains shown, His/FLAG-tagged IgG1, cell-free; also called Antibody 109) VH: EVQLVESGGGLVQPGGSLRLSCAASGFNINQYYIHWVRQAPGEGLEWVGAIDPIGGSTHLADSVKGRFTISADTSKNTAYLQMNSLRAEDAAVYYCARSRWYRVLWSYVFDYWGQGTLVTVSS VL: not shown	15400	0.47
SRP2193-C06 (antibody, IgG1, V domains shown, His/FLAG-tagged IgG1, cell-free) VH: EVQLVESGGGLVQPGGSLRLSCAASGFNIIVHYIHWVRQAPGKGLEWVSAIDPISGSTQWADSVKGRFTISADTSKNTAYLQMNSLRAEDTAVYYCARSRWRRALWIYVFDYWGQGTLVTVSS VL: not shown	14500	4.16
SRP2193-B07 (antibody, IgG1, V domains shown, His/FLAG-tagged IgG1, cell-free) VH: EVQLVESGGGLVQPGGSLRLSCAASGFNINNSYIHWVRQAPGKGLEWVGAIDPNSGSTLSADSVKGRFTISADTSKSTAYLQMNSLRAEDTAVYYCARSRWFRVLWSYIFDYWGQGTLVTVSS VL: not shown	15500	0.6
SRP2193-B08 (antibody, IgG1, V domains shown, His/FLAG-tagged IgG1, cell-free; also called Antibody 90) VH: EVQLVESGGGLVQPGGSLRLSCAASGFNIKDYYIHWVRQAPGKGLEWVSAIDPSPGATLDADSVKGRFTISADTSKNTAYLQMNSLRAEDTAVYYCARSRWFRVLWSYALDYWGQGTLVTVSS VL: not shown	14300	1.15
SRP2193-E10 (antibody, IgG1, V domains shown, His/FLAG-tagged IgG1, cell-free; also called Antibody 72) VH: EVQLVESGGGLVQPGGSLRLSCAASGFNIYDYYIHWVRQAPGKGLEWVGAIDPVNGSTNNADSVKGRFTISADTSKNTAYLQMNSLRAEDTAVYYCARSRWYRVLWSYVFDYWGQGTLVTVSS VL: not shown	15900	7.14
SRP2193-E04 (antibody, IgG1, V domains shown, His/FLAG-tagged IgG1, cell-free; also called Antibody 74) VH: EVQLVESGGGLVQPGGSLRLSCAASGFNINDRYIHWVRQAPGKGLEWVGVIDPSLGSTIDADSVKGRFTISADTSRNTAYLQMNSLRAEDTAVYYCARSRWFRVLWSYVFDYWGQGTLVTVSS VL: not shown	14400	15.6
SRP2193-C10 (antibody, IgG1, V domains shown, His/FLAG-tagged IgG1, cell-free; also called Antibody 123) VH: EVQLVESGGGLVQPGGSLRLSCAASGFNINNAYIHWVRQAPGKGLEWVGAIDPRSGSTISADSMKGRFTISADTSKNTAYLQMNSLRAEDTAVYYCARSRWFRVLWSFGFDYWGQGTLVTVSS VL: not shown	16600	0.32
SRP2193-D07 (antibody, IgG1, V domains shown, His/FLAG-tagged IgG1, cell-free) VH: EVQLVESGGGLVQPGGSLRLSCAASGFNIIDYNIHWVRQAPGKGLEWVTAIGPADGSTVNADSLKGRFTISADTSKNTAYLQMNSLRAEDTAVYYCARSRWLRVLWSYVFDYWGQGTLVTVSS VL: not shown	15400	3.11
SRP2193-B10 (antibody, IgG1, V domains shown, His/FLAG-tagged IgG1, cell-free; also called Antibody 88) VH: EVQLVESGGGLVQPGGSLRLSCAASGFNIADYYVHWVRQAPGKGLEWVGAIDPNSGYTVKADSVKGRFTISADTSKNTAYLQMNSLRAEDTAVYYCARSRWLRVLWSFVFDYWGQGTLVTVSS VL: not shown	14700	1.08
SRP2193-D03 (antibody, IgG1, V domains shown, His/FLAG-tagged IgG1, cell-free; also called Antibody 93) VH: EVQLVESGGGLVQPGGSLRLSCAASGFNINDHYIHWVRQAPGKGLEWVSAIDPNTGSTVNADSVKGRFTISADTSKNTAYLQMNSLRAEDTAVYYCARSRWSRVLWIYVFDYWGQGTLVTVSS VL: not shown	15700	0.93
SRP2193-C03 (antibody, IgG1, V domains shown, His/FLAG-tagged IgG1, cell-free) VH: EVQLVESGGGLVQPGGSLRLSCAASGFNINYSYIHWVRQAPGKGLEWVGAIEPKSGSTASADSVKGRFTISADTSKNTAYLQMNSLRAEDAAVYYCARSRWYRVLWSYVLDYWGQGTLVTVSS VL: not shown	15700	0.14
SRP2193-E02 (antibody, IgG1, V domains shown, His/FLAG-tagged IgG1, cell-free) VH: EVQLVESGGGLVQPGGSLRLSCAASGFNIKDYYIHWVRQAPGKGLEWVGSIDPTSGSTVIADSVKGRFTISADTSKNTAYLQMNSLRAEDTAVYYCARSRWWRVLWSYVFDYWGQGTLVTVSS VL: not shown	16400	8.13
SRP2193-C08 (antibody, IgG1, V domains shown, His/FLAG-tagged IgG1, cell-free; also called Antibody 99) VH: EVQLVESGSGLVQPGGSLRLSCAASGFNINHYYIHWVRQAPGKGLEWVGAIDPYPGSTYNADSVKGRFTISADTSKNTAYLQMNSLRAEDTAVYYCARSRWFRVLWSYVFDYWGQGTLVTVSS VL: not shown	15000	0.72
SRP2193-C05 (antibody, IgG1, V domains shown, His/FLAG-tagged IgG1, cell-free; also called Antibody 91) VH: EVQLVESGGGLVQPGGSLRLSCAASGFNIKHSYIHWVRQAPGKGLEWVGAIDPHNGSTASADSVKGRFTISADTSKNTAYLQMNSLRAEDTAVHYCARSRWFRVLWSYVIDYWGQGTLVTVSS VL: not shown	15100	1.75
SRP2194-A03 (antibody, IgG1, V domains shown, His/FLAG-tagged IgG1, cell-free) VH: EVQLVESGGGLVQPGGPLRLSCAASGFNITGYYIHWVRQAPGKGLEWVGYITPNSGTTYSADSVKGRFTISADTSKNTAYLQMNSLRAEDTAVYYCARDSRRYVRPLDYWGQGTLVTVSS VL: not shown	7610	5.35
SRP2196-A01 (antibody, V domains shown, His/FLAG-tagged IgG1) VH: EVQLVESGGGLVQPGGSLRLSCAASGFNITGYYIHWVRQAPGKGLEWVGQISPNSGYTYYADSVKGRFTISADTSKNTAYLQMNSLRAEDTAVYYCARDSRRYVRGWDYWGQGTLVTVSS VL: QAVVTQESALTTSPGETVTLTCRSSTGAVTTSNYANWVQEKPDHLFTGLIGGTNKRAPGVPARFSGSLIGDKAALTITGAQTEDEAIYFCALWYSNLWVFGGGTKLTVL	15800	0.3
SRP2194-A09 (antibody, IgG1, V domains shown, His/FLAG-tagged IgG1, cell-free; also called Antibody 130) VH: EVQLVESGGGLVQPGGSLRLSCAASGFNITGYYIHWVRQAPGKGLEWVGYITPLSGATYRADSVKGRFTISADTSKNTAYLQMNSLRAEDTAVYYCARDSRRYVRPFDYWGQGTLVTVSS VL: not shown	8240	0.13
SRP2194-A10 (antibody, IgG1, V domains shown, His/FLAG-tagged IgG1, cell-free) VH: EVQLVESGGGLVQPGGSLRLSCAASGFNITQYYIHWVRQAPAKGLEWVGYISPNSGSTHIADSVKGRFTISADTSKNTAYLQMNSLRAEDTAVYYCARDSRRYVRPFDYWGQSTLVTVSS VL: not shown	8250	0.16
SRP2194-A08 (antibody, IgG1, V domains shown, His/FLAG-tagged IgG1, cell-free) VH: EVQLVESGGGLVQPGGSLRLSCAASGFNITGYHIHWVRQAPGKGLEWVGYIAPSSGYTYDADSVKGRFTISADTSKNTAYLQMNSLRAEDTAVYYCARDSRRYVRPFDYWGQGTLVTVSS VL: not shown	8250	0.3
SRP2194-A11 (antibody, IgG1, V domains shown, His/FLAG-tagged IgG1, cell-free; also called Antibody 135) VH: EVQLVESGGGLVQPGGSLRLSCAASGFNITQYYIHWVRQAPGKGLEWVGYISPNSGYTTDADSVKGRFTISADTSKNTAYLQMNSLRAEDTAVYYCARDSRRYVRPFDYWGQGTLVTVSS VL: not shown	8660	0.1

These binders were tested against T2, human ROR1 Frizzled domain (hROR1-Fz) (human, UniProt Q01973 165-305) (assay: SPR Biacore, IgG on anti-Fc, ROR1-Fz analyte).
T2 construct: Acro Biosystems, made in HEK293
Description: Anti-Fc polyclonal antibodies were immobilized onto a CMS chip (GE Life Sciences) using amine coupling chemistry (from Amine Coupling Kit, GE Life Sciences). The immobilization steps were carried out at a flow rate of 25 μL/min in 1×HBS-EP+buffer (GE Life Sciences; 10× Stock diluted before use). The sensor surfaces were activated for 7 min with a mixture of NHS (0.05 M) and EDC (0.2 M). The Anti-Fc antibodies were injected over all 4 flow cells at a concentration of 25 ug/ml in 10 mM sodium acetate, pH 4.5, for 7 min. Ethanolamine (1 M, pH 8.5) was injected for 7 min to block any remaining activated groups.
Off-rate and kinetic binding experiments were performed at 25° C. using 1×HBS-EP+buffer. Test and control antibodies were injected over the anti-Fc surface at concentrations of 5-10 μg/mL for 12 seconds at a flow rate of 10 μL/min on flow cells 2, 3 and 4, followed by a buffer wash for 30 seconds at the same flow rate. […] After capturing ligand (antibody) on the anti-Fc surface, the analyte (hROR1, Fz or Kr domains, Acro Biosystems, Delaware) was bound for 180 seconds, followed by a 600 second dissociation phase at a flow rate of 50 μL/min. Between each ligand capture and analyte binding cycle, regeneration was carried out using 2 injections of 10 mM Glycine pH 2.0 for 30 seconds at 30 μL/min, followed by a 30 second buffer wash step.

Binder	Kd [nM]	koff [s⁻¹]	kon [M⁻¹ s⁻¹]
SRP1943-C02 (antibody, IgG1, V domains shown, Parent of SRP2193; His/FLAG-tagged IgG1, cell-free; also called Antibody 70) VH: EVQLVESGGGLAQPGGSLRLSCAAPGFNINDYYIHWVRQAPGKGLEWVGAIDPNSGSTDYADSVKGRFAISADTSKNTAYLQMNSLRAEDTAVYYCARSRWFRVLWSYVFDYWGQGTLVTVSS VL: not shown	97.6	0.05	539000
